Experimental data published in PMC6370554.

Molecular target: biotinylated histone H3K27me3 (21-44) peptide (UniProt P68431)
Assay: ELISA

HRP ELISA signal:background ratio (H3K27me3 over unmodified H3): 6
Substance: Pcαα fusion protein (tandem human CBX8 PCDs, mCherry, VP64) (from UniProt Q9HC52 1-62; Q9HC52 1-62) (designed binder)
